# Reference: patent publication US20220016254A1 (BEIJING QL BIOPHARMACEUTICAL, published 2022)
# Where a chain is given by its changes, count along the chain named.
# T1: human beta-Klotho (human, UniProt Q86Z14 1-1044)
# T1 sequence (looked up): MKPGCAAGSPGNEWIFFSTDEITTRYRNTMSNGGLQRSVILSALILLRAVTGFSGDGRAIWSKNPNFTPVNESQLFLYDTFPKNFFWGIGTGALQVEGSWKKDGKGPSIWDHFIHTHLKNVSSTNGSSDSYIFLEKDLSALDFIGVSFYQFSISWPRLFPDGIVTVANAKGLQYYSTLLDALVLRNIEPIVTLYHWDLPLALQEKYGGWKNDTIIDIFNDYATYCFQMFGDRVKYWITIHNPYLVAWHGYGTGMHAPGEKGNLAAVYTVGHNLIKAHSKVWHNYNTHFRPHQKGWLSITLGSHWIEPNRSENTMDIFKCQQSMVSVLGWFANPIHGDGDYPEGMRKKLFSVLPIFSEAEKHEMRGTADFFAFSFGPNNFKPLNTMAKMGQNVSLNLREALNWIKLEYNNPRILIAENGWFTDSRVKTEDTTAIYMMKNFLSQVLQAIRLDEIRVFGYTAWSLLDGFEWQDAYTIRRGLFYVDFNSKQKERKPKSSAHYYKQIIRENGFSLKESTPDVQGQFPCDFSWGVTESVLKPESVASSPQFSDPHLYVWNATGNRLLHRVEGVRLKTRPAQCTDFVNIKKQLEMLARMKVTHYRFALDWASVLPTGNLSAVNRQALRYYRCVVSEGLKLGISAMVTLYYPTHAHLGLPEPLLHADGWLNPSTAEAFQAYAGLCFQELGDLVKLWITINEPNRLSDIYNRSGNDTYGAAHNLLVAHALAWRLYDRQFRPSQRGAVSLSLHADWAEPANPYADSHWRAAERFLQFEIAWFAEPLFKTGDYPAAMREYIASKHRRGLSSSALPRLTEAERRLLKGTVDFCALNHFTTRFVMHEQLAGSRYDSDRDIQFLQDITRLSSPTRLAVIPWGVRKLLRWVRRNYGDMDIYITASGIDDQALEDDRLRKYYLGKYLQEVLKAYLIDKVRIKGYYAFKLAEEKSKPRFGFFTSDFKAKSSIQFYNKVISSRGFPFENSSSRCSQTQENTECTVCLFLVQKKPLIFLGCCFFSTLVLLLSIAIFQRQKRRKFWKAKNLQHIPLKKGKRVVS
# B1: Compound 39 (ligand)
# chain: HGEGTFTSDVSSYLEEQAAREFIAWLVRGGGGGGGSGGGGSGGGGSGGGGSGGGGSGGGGSGGGGSGGGGKHPIPDSSPLLQFGGQVRQRYLYTDDAQQTEAHLEIREDGTVGGAADQSPESLLQLRALRPGVIQILGVRTSRFLCQRPDGALYGSLHFDPEACSFRELLLEDGYNVYQSEAHGLPLHLPGQRSPHRDPAPRGPARFLPLPGLPPALPEPPGILAPQPPDVGSSDPLSLVGKSQGRSPSYES
# modifications: Moiety A (HOOC-(CH2)16-CO-gGlu-2XADO) on 71K and 242K of fusion polypeptide
# B2: Native FGF21 (ligand)
# chain: HPIPDSSPLLQFGGQVRQRYLYTDDAQQTEAHLEIREDGTVGGAADQSPESLLQLKALKPGVIQILGVKTSRFLCQRPDGALYGSLHFDPEACSFRELLLEDGYNVYQSEAHGLPLHLPGNKSPHRDPAPRGPARFLPLPGLPPALPEPPGILAPQPPDVGSSDPLSMVGPSQGRSPSYAS
# B3: Compound 22 (ligand)
# chain: HGEGTFTSDVSSYLEEQAAREFIAWLVRGGGGGGGSGGGGSGGGGSGGGGKHPIPDSSPLLQFGGQVRQRYLYTDDAQQTEAHLEIREDGTVGGAADQSPESLLQLRALRPGVIQILGVRTSRFLCQRPDGALYGSLHFDPEACSFRELLLEDGYNVYQSEAHGLPLHLPGQRSPHRDPAPRGPARFLPLPGLPPALPEPPGILAPQPPDVGSSDPLSLVGGSQGRSPSYK
# modifications: Moiety A (HOOC-(CH2)16-CO-gGlu-2XADO) on 51K and 231K of fusion polypeptide
# B4: Compound 9 (ligand)
# chain: HGEGTFTSDVSSYLEEQAAREFIAWLVRGGGGGGGSGGGGSGGGGSGGGGSHPIPDSSPLLQFGGQVRQRYLYTDDAQQTEAHLEIREDGTVGGAADQSPESLLQLRALRPGVIQILGVRTSRFLCQRPDGALYGSLHFDPEACSFRELLLEDGYNVYQSEAHGLPLHLPGQRSPHRDPAPRGPARFLPLPGLPPALPEPPGILAPQPPDVGSSDPLSLVGGSQGRSPSYKS
# modifications: Moiety A (HOOC-(CH2)16-CO-gGlu-2XADO) on 231K of fusion polypeptide
# B5: Compound 20 (ligand)
# chain: B4 chain with S51K, G221K, G222P, K231E
# modifications: Moiety A (HOOC-(CH2)16-CO-gGlu-2XADO) on 51K and 221K of fusion polypeptide
# B6: Compound 15 (ligand)
# chain: B4 chain with G222P
# modifications: Moiety A (HOOC-(CH2)16-CO-gGlu-2XADO) on 231K of fusion polypeptide
# B7: Compound 19 (ligand)
# chain: B4 chain with S51K, G222K, K231E
# modifications: Moiety A (HOOC-(CH2)16-CO-gGlu-2XADO) on 51K and 222K of fusion polypeptide
# B8: Compound 2 (ligand)
# chain: B4 chain with R20K
# modifications: Moiety A (HOOC-(CH2)16-CO-gGlu-2XADO) on 20K and 231K of fusion polypeptide
# B9: Compound 52 (ligand)
# chain: B4 chain with R20K, S51C, R107K, R110K, R120K, R173K, G225C, K231E
# modifications: Moiety B (HOOC-(CH2)20-CO-gGlu-2XADO-EDA-CO-CH2) on 51C and 225C of fusion polypeptide
# B10: Compound 12 (ligand)
# chain: B4 chain with G225K, K231E
# modifications: Moiety A (HOOC-(CH2)16-CO-gGlu-2XADO) on 225K of fusion polypeptide
# B11: Compound 51 (ligand)
# chain: B4 chain with R20K, S51C, R107K, R110K, R120K, R173K, G222C, K231E
# modifications: Moiety B (HOOC-(CH2)20-CO-gGlu-2XADO-EDA-CO-CH2) on 51C and 222C of fusion polypeptide
# B12: Compound 11 (ligand)
# chain: B4 chain with G221K, G222P, K231E
# modifications: Moiety A (HOOC-(CH2)16-CO-gGlu-2XADO) on 221K of fusion polypeptide
# B13: Compound 21 (ligand)
# chain: B4 chain with S51K, G225K, K231E
# modifications: Moiety A (HOOC-(CH2)16-CO-gGlu-2XADO) on 51K and 225K of fusion polypeptide
# B14: Compound 10 (ligand)
# chain: B4 chain with G222K, K231E
# modifications: Moiety A (HOOC-(CH2)16-CO-gGlu-2XADO) on 222K of fusion polypeptide
# B15: Compound 50 (ligand)
# chain: HGEGTFTSDVSSYLEEQAAREFIAWLVRGGGGGGGSGGGGSGGGGSGGGGKHPIPDSSPLLQFGGQVRQRYLYTDDAQQTEAHLEIREDGTVGGAADQSPESLLQLRALRPGVIQILGVRTSRFLCQRPDGALYGSLHFDPEACSFRELLLEDGYNVYQSEAHGLPLHLPGQRSPHRDPAPRGPARFLPLPGLPPALPEPPGILAPQPPDVGSSDPLSLVGGSQGRSPSYESK
# modifications: Moiety A (HOOC-(CH2)16-CO-gGlu-2XADO) on 51K and 233K of fusion polypeptide
# B16: Compound 13 (ligand)
# chain: HGEGTFTSDVSSYLEEQAAREFIAWLVRGGGGAQPGAQPGAQPGAQPGAQPHPIPDSSPLLQFGGQVRQRYLYTDDAQQTEAHLEIREDGTVGGAADQSPESLLQLRALRPGVIQILGVRTSRFLCQRPDGALYGSLHFDPEACSFRELLLEDGYNVYQSEAHGLPLHLPGQRSPHRDPAPRGPARFLPLPGLPPALPEPPGILAPQPPDVGSSDPLSLVGKSQGRSPSYES
# modifications: Moiety A (HOOC-(CH2)16-CO-gGlu-2XADO) on 222K of fusion polypeptide
# B17: Compound 48 (ligand)
# chain: B16 chain with P51K
# modifications: Moiety A (HOOC-(CH2)16-CO-gGlu-2XADO) on 51K and 222K of fusion polypeptide
# B18: Compound 14 (ligand)
# chain: B16 chain with A33Q, Q34E, A37Q, Q38E, A41Q, Q42E, A45Q, Q46E, A49Q, Q50E
# modifications: Moiety A (HOOC-(CH2)16-CO-gGlu-2XADO) on 222K of fusion polypeptide
# B19: Compound 42 (ligand)
# chain: HGEGTFTSDVSSYLEEQAAREFIAWLVRGGGGAQPGAQPGAQPGAQPGAQPGAQPGAQPGAQPGAQPGAQKHPIPDSSPLLQFGGQVRQRYLYTDDAQQTEAHLEIREDGTVGGAADQSPESLLQLRALRPGVIQILGVRTSRFLCQRPDGALYGSLHFDPEACSFRELLLEDGYNVYQSEAHGLPLHLPGQRSPHRDPAPRGPARFLPLPGLPPALPEPPGILAPQPPDVGSSDPLSLVGKSQGRSPSYES
# modifications: Moiety A (HOOC-(CH2)16-CO-gGlu-2XADO) on 71K and 242K of fusion polypeptide
# B20: Compound 40 (ligand)
# chain: HGEGTFTSDVSSYLEEQAAREFIAWLVRGGGGAQPGAQPGAQPGAQPGAQPGAQPGAQPGAQPGAQPGAQPGAQPGAQPGAQPGAQPGAQPGAQPGAQPGAQPGAQPGAQKHPIPDSSPLLQFGGQVRQRYLYTDDAQQTEAHLEIREDGTVGGAADQSPESLLQLRALRPGVIQILGVRTSRFLCQRPDGALYGSLHFDPEACSFRELLLEDGYNVYQSEAHGLPLHLPGQRSPHRDPAPRGPARFLPLPGLPPALPEPPGILAPQPPDVGSSDPLSLVGKSQGRSPSYES
# modifications: Moiety A (HOOC-(CH2)16-CO-gGlu-2XADO) on 111K and 282K of fusion polypeptide
# What was measured:
# human GLP-1 receptor = human GLP-1 receptor (human, UniProt P43220 24-463); experiment: cell-based or functional assay
# human beta-Klotho = molecular target: T1, human beta-Klotho; experiment: cell-based or functional assay
Binder,"GLP-1 activity (EC50, pM); CRE luciferase reporter (human GLP-1 receptor) [pM]","FGF21 activity (EC50, nM); p-ERK levels (human beta-Klotho) [nM]"
B1,12.6,4.2
B2,–,10.6
B3,50.4,7
B4,19.9,4.9
B5,39.1,10.6
B6,16.8,7.3
B7,20.3,13.6
B8,46.6,5.5
B9,30.2,2.4
B10,17,4.1
B11,30.7,4.3
B12,18.2,3.9
B13,36.8,17.6
B14,17.6,4.5
B15,15.4,8.7
B16,19.6,9.1
B17,14.4,20.4
B18,33.2,19
B19,–,8.4
B20,–,8
